Non-standard residues stand in square brackets, D forms with d. pT = C[C@@H](OP(=O)(O)O)[C@H](N)C(=O)O
T1: Cdc4 (Saccharomyces cerevisiae, UniProt P07834)
T1 sequence (P07834 1-779): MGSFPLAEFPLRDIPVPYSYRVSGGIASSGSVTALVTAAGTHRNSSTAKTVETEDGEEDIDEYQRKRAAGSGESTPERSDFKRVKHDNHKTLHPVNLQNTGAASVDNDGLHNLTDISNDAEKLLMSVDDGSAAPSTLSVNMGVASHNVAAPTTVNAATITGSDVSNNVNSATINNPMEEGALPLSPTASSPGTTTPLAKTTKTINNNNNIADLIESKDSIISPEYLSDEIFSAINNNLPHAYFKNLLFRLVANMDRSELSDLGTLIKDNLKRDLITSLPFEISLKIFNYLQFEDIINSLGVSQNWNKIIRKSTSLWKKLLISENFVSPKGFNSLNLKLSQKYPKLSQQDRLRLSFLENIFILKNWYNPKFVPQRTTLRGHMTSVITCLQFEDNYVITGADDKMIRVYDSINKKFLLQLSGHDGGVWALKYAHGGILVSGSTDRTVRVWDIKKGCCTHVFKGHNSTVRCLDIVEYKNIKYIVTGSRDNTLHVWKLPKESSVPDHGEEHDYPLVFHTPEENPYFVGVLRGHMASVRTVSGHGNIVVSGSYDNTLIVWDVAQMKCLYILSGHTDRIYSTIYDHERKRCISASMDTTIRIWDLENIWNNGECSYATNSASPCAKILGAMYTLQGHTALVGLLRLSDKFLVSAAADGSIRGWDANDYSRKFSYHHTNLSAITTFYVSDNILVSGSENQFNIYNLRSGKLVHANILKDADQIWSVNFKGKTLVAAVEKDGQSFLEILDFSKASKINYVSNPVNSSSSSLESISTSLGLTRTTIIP

T2: phospho-Sic1 isoforms (Saccharomyces cerevisiae, UniProt P38634)
T2 construct: His6 (N); made in house; host or cells: bacteria (Sic1, Cdc4-GST-Skp1); insect cells (Cdc53-Rbx1)
T2 sequence (P38634 1-284): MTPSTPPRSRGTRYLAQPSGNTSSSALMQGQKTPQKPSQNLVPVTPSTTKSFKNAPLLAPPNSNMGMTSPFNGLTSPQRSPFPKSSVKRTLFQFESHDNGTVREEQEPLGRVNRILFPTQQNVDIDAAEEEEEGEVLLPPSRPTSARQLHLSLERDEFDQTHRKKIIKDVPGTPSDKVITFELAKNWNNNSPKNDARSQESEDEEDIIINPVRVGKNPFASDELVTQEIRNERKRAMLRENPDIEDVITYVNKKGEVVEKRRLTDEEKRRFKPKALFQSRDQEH

B1: WT: wild type yeast Cdc4 F-box protein (protein, UniProt P07834 1-779, looked up)
Cell division control protein …: T1 sequence (P07834 1-779)

What was measured:
Cdc4 = target: T1, Cdc4; conditions: cyclin E derived nine-residue CPD phosphopeptide binding Cdc4 (Nash et al., 2001); cited from earlier work
phospho-Sic1 = assay: P-Sic1 pull down: in vitro capture of phospho-Sic1 on immobilized wild type or mutant Cdc4-GST-Skp1, anti-Sic1 immunoblot; format: binding, yeast; conditions: Sic1 phosphorylated with Cln2-Cdc28, captured onto GST-Skp1/Cdc4 resin, anti-Sic1 detection
Method in brief: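 Bacterial His6-Sic1 phosphorylated by Cln2-Cdc28 from Sf9 cells; 0.5 μg phospho-Sic1 incubated with 1 μg immobilized wild-type or mutant Cdc4(263-744)-GST-Skp1 at 4° C for 1 h, washed four times. Bound Sic1 detected by anti-Sic1 immunoblot after SDS-PAGE.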

cdc4Δ strain = assay: plasmid shuffle assay: complementation of a cdc4Δ strain by CDC4 alleles; format: cell-based, yeast; conditions: viability of cdc4Δ strain on 5-FOA, 2 days at 30° C.
Method in brief: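 Mutant CDC4 alleles on TRP1 CEN plasmids were shuffled into cdc4Δ strain MT 1259 carrying wild-type CDC4 on a URA3 plasmid, with growth on 5-FOA for 2 days at 30° C. Survivors were transformed with GAL1-SIC1 or phosphosite mutants and plated on glucose or galactose, 2 days at 30° C.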

[1] = test system: cdc4Δ strain overexpressing SIC1; assay: sensitivity to SIC1 dosage: GAL1-SIC1 overexpression in strains bearing CDC4 alleles; format: cell-based, yeast; conditions: galactose, 2 days at 30° C.
Method in brief: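 SIC1 dosage sensitivity: cdc4Δ strains carrying CDC4 mutant alleles (after plasmid shuffle) transformed with GAL1-SIC1 or GAL1-SIC1^T33V (also T45A), plated on glucose versus galactose medium for 2 days at 30 °C. Growth on galactose scored as tolerance of SIC1 overexpression.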

phospho-Sic1 isoforms [2] = assay: IEF-2D gel analysis of Sic1 phospho-isoforms captured by wild type or mutant Cdc4-GST-Skp1; format: binding, yeast; conditions: pool of Sic1 phosphorylated on 1 to 9 sites; listed as Wild type Cdc4
Description: Bacterially expressed His6-Sic1 was phosphorylated with Cln2-Cdc28 kinase purified from baculovirus infected Sf9 cells as described before (Nature paper). 1 ug of WT or mutant Cdc4-GST-Skp1, immoblized on GSH-Sepharose resin, was incubated with 0.5 ug phospho-Sic1 at 4 C for 1 h and washed 4 times. Captured complexes were resolved on SDS-PAGE and Sic1 visualized by anti-Sic1 Western blotting and ECL. For IEF-2D analysis, several Sic1 phosphorylation reactions were carried out for different time periods to obtain a spectrum of Sic1 that were phosphorylated at different numbers of its nine CDK sites. This pool of phospho-Sic1 (2.5 ug) was incubated with 5 μg of WT or mutant Cdc4-GST-Skp1 as described above. Different phosphorylation states of Sic1 were separated by denaturing isoelectric focusing (IEF)-2D gel electrophoresis and visualized by anti-Sic1 Western blotting and ECL. IEF was performed using pH 3-10NL Immobiline gel strips and IPGphore IEF system (Amersham pharmacia).
Cdc4 functional assays. CDC4 mutant alleles were assessed for complementation of a cdc4A strain in a plasmid shuffle assay (Nash et al., 2001). Sensitivity to SIC1 dosage was determined by transformation with pMT837 (GAL1-SIC1) or pMT767 (GAL1-SIC1^T33V) and plating on glucose medium or galactose medium. […]

phospho-Sic1 isoforms [3] = target: T2, phospho-Sic1 isoforms; assay: in vitro ubiquitination of phospho-Sic1 isoforms by wild type or mutant SCFCdc4 complex; format: biochemical, yeast; conditions: Cdc34, ubiquitin, ATP, 1 h at 30° C.

Row | Molecule | Kd (Cdc4) [nM] | P-Sic1 pull down (phospho-Sic1) | shuffle (cdc4Δ strain) | gal Sic1T33V ([1]; GAL1-SIC1 T33V (partially stabilized Sic1)) | gal Sic1T45A ([1]; GAL1-SIC1 T45A) | gal Sic1 wt ([1]; GAL1-SIC1 wild type) | Sic1 phospho-isoforms captured (number of phosphorylated sites) (phospho-Sic1 isoforms [2]) | conversion of Sic1 phosphorylated on four or five sites to oligo-ubiquitinated species (phospho-Sic1 isoforms [3])
1 | Ac-GLL[pT]PPQSG-NH2 [CPD phosphopeptide] | 1000 |  |  |  |  |  |  | 
2 | B1 |  | bind | alive | alive | dead | alive | six or more sites | unable

Reference: patent publication US20040171074A1, “Structures of substrate binding pockets of SCF complexes” (MOUNT SINAI HOSPITAL, priority 2002, published 2004)
